{
  "source": "patent US7947279B2",
  "about": "“Peptide having hydrolase activity” (The Trustees of Columbia University in the City of New York, priority 2005, dated 2011)",
  "key": {"Uch-L1 [1]": {"biological_target": "T1, Uch-L1 (Mus musculus, UniProt Q9R0P9)", "T1 construct": "hippocampal tissue was treated with tissue protein extraction reagent; from tissue; host or cells: mouse hippocampal slices (C57/BL6 or APP/PS1 and WT littermates)", "T1 sequence (Q9R0P9 1-220)": "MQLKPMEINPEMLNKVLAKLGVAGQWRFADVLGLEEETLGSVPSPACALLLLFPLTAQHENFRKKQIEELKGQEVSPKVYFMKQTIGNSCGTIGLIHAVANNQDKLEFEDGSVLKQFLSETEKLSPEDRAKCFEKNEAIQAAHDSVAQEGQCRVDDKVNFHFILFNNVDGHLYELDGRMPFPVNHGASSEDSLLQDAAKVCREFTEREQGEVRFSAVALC", "assay": "Hydrolase (ubiquitin-AMC) assay on hippocampal slices", "type": "cell-based", "experimental": "(§1) Slice preparation. Mice were decapitated and their hippocampi removed. […] Slices were permitted to recover from cutting for at least 90 min. before recordings. For experiments with lactacystin, slices were perfused with the drug or vehicle for 2 to 4 hrs in a small volume (10 ml) chamber.\n(§2) Briefly, hippocampal tissue was treated with tissue protein extraction reagent (T-PER; Pierce) containing freshly added EDTA-free protease inhibitors. Homogenate was centrifuged at 10,000 rpm for 5 min. Protein concentration was measured in the supernatant using the BCA protein assay reagent. In some experiments hydrolysis was initiated by adding 10 μl of 20 nM Uch-L1 or Uch-L3 (Boston Biochem). The hydrolase assay was performed using fluorogenic ubiquitin-7-amino-4-methylcoumarin (ubiquitin-AMC) (Boston Biochem) as a substrate. The substrate was diluted in assay buffer (50 mM Tris-HCL, 0.5 mM EDTA, 5 mM dithiothreitol and 0.1 mg/ml ovalbumin, pH 7.6). Each reaction mixture containing 400 nM substrate and 100 μg enzyme sample was incubated for 5 min at room temperature. The reaction was monitored using a fluorescence spectrophotometer (CytoFluor Series 4000, ABI Inc) at 25° C. The free AMC fluorophore was excited at 380 nm and measured at 460 nm. […] In some experiments, hydrolysis was also measured on the soluble and insoluble fractions (FIG. 28D). In a group of experiments hydrolysis was measured by mixing ubiquitin-AMC with 20 nM TAT fusion proteins (FIG. 27C). In other experiments the substrate was Nedd8-AMC (Boston Biochem)."}, "Uch-L3": {"biological_target": "T2, Uch-L3 (Homo sapiens, UniProt P15374)", "T2 sequence (P15374 1-230)": "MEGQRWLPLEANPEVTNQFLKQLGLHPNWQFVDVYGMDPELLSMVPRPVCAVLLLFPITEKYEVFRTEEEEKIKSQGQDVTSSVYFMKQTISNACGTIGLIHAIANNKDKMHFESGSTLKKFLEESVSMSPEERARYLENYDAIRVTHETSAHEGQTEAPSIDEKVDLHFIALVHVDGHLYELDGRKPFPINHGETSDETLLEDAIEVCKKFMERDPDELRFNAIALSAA", "settings": "cited from earlier work"}, "Uch-L1 [2]": {"test_system": "Uch-L1", "assay": "Hydrolase (ubiquitin-AMC) assay on hippocampal slices", "type": "cell-based, mouse", "experimental": "as §1, §2"}, "PKA": {"test_system": "PKA", "assay": "PKA kinase activity in hippocampal cultures", "type": "cell-based, rat", "settings": "fusion protein 100 nM 24 hrs; for basal PKA activity in Aβ-treated cultures: Aβ 24 hrs", "experimental": "PKA Kinase Activity Measurement. Primary hippocampal neurons from E18 rats were dissociated and cultured as described (Vitolo et al, Proc Natl Acad Sci USA 99:13217-13221 (2002)). […]\nHippocampal slices were lysed with RIPA lysis buffer and homogenized by Dounce homogenizer on ice. 5 DIV primary cultures were treated for 24 hrs and cells were lysed with RIPA lysis buffer.\nLevels of intracellular PKA kinase activity were measured by PKA Kinase Activity Assay Kit (Stressxpress) according to manufacturer's instructions.\nPreparation of Cell Cultures. Hippocampal cell cultures were prepared as previously described (Vitolo et al., 2002). In cell culture experiments fetuses at embryonic day 18 from timed pregnant Sprague-Dawley rats (Taconic Farms) were used. Fetuses were sacrificed and the hippocampi removed. Neurons were then dissociated, plated on 6 well-plates coated with poly-L-lysine and maintained in a defined serum-free medium containing minimum essential medium supplemented with N-2, glucose, albumin, pyruvic acid, antibiotics and antimycotics. […] 5 DIV cells were used for the experiments."}, "Aβ42": {"test_system": "Aβ42", "assay": "Quantification of amyloid peptides by ELISA in APP/PS1 mice", "type": "in vivo, mouse", "settings": "for cortex Aβ levels / hippocampal Aβ levels: 0.02-0.04 g/kg i.p.; for Aβ levels in APP/PS1 mice (words): single injection 0.02-0.04 g/kg i.p."}, "[3]": {"assay": "Native gel dimer formation", "type": "physicochemical"}, "[4]": {"settings": "3-5 month old APP/PS1 mice, sacrificed 3 weeks after injection"}, "[5]": {"settings": "4 month old APP/PS1 mice, sacrificed 4 hrs after injection"}, "[6]": {"settings": "4 hrs after injection, 4 month old APP/PS1 mice"}},
  "note": "“Also recorded” adds a separate entry of the source.",
  "data": [
    {"molecule": "CC(=O)O/N=C1\\C(=O)N(Cc2cc(Cl)ccc2Cl)c2ccc(Cl)cc21", "note": "[LDN-57444, reference compound]", "values": [
      {"measurement": "reduction of enzymatic activity", "setting": "Uch-L1 [1]; 1 μM LDN", "value": 20, "unit": "%"},
      {"measurement": "reduction of enzymatic activity", "setting": "Uch-L1 [1]; 2.7 μM LDN, 2-4 hour perfusion", "value": "~40", "unit": "%"},
      {"measurement": "inhibition of enzymatic activity", "setting": "Uch-L1 [1]; 5 μM LDN, 15 minute perfusion", "value": 20, "unit": "%"},
      {"measurement": "reduction of activity", "setting": "Uch-L1 [1]; 5 μM LDN, 2 hour exposure", "value": 70, "unit": "%"},
      {"measurement": "Maximal inhibition of Uch activity", "setting": "Uch-L1 [1]; 5 μM LDN, one hour (60 min)", "value": 70, "unit": "%"},
      {"measurement": "Uch activity in APP/PS1 slices", "setting": "Uch-L1 [1]; 5 μM for 2 hrs", "value": "further reduced Uch activity"},
      {"measurement": "Ubiquitin-C-Terminal hydrolase activity", "setting": "Uch-L1 [1]; 5 μM for 4 hrs", "value": "decreased"},
      {"measurement": "Uch-L1 hydrolase activity", "setting": "Uch-L1 [1]; LDN-57444 perfusion (5 μM, 4 hrs)", "value": "less than 30 % of vehicle-treated controls"},
      {"measurement": "enzymatic activity", "setting": "Uch-L1 [1]; WT and APP/PS1 slices, 5 μM LDN, 2 hours", "value": "~70 % of values in vehicle treated WT slices"},
      {"measurement": "IC50", "setting": "Uch-L3", "value": 25, "unit": "µM"}
    ]},
    {"molecule": "TAT-HA-Uch-L1: fusion protein: 11-amino acid transduction domain of HIV-transactivator protein (TAT) fused with an HA tag and human Uch-L1 (protein, left off: small tags and cut ends) MQLKPMEINPEMLNKVLSRLGVAGQWRFVDVLGLEEESLGSVPAPACALLLLFPLTAQHENFRKKQIEELKGQEVSPKVYFMKQTIGNSCGTIGLIHAVANNQDKLGFEDGSVLKQFLSETEKMSPEDRAKCFEKNEAIQAAHDAVAQEGQCRVDDKVNFHFILFNNVDGHLYELDGRMPFPVNHGASSEDTLLKDAAKVCREFTEREQGEVRFSAVALCKAA", "values": [
      {"measurement": "Uch activity", "setting": "Uch-L1 [2]; 20 nM fusion protein 1 hr pre-incubation, 200 nM Aβ 20 min", "value": "normal monoubiquitin levels and Uch activity are maintained; also recorded: re-established normal ubiquitin-C-terminal hydrolase activity; also recorded: re-established normal Uch activity"},
      {"measurement": "ubiquitin-c-terminal hydrolase enzymatic activity", "setting": "Uch-L1 [2]; 20 nM fusion protein 1 hr, then 200 nM Aβ plus fusion protein", "value": "98.40±5.76 % of TAT-HA treated WT slices"},
      {"measurement": "enzymatic (Uch) activity", "setting": "Uch-L1 [2]; fusion protein alone", "value": "slight increase"},
      {"measurement": "enzymatic activity", "setting": "Uch-L1 [2]; fusion protein alone for 1 hr", "value": "148.63±12.01 % of TAT-HA treated slices"},
      {"measurement": "Uch activity", "setting": "Uch-L1 [2]; slices from 4 month APP/PS1 mice, 20 nM for 1 hr", "value": "Uch activity is restored"},
      {"measurement": "glutamate-induced increase in PKA activity in Aβ-treated cultures", "setting": "PKA; 3 μM Aβ 24 hrs, glutamate 50 μM 15 min", "value": "rescued the increase in PKA activity; also recorded: rescued the glutamate-induced increase in kinase activity"},
      {"measurement": "basal PKA activity in Aβ-treated cultures", "setting": "PKA", "value": "reversing the Aβ-induced decrease in basal PKA activity; also recorded: re-established; also recorded: increased levels of kinase activity"},
      {"measurement": "basal PKA activity in Aβ-treated cultures", "setting": "PKA; listed as TAT-Uch-L1 fusion protein", "value": "re-establishes normal levels"},
      {"measurement": "cortex Aβ levels", "setting": "Aβ42; [4]", "value": "90.28±17.38", "unit": "pmol/mg protein"},
      {"measurement": "hippocampal Aβ levels", "setting": "Aβ42; [4]", "value": "178.60±18.24", "unit": "pmol/mg protein"},
      {"measurement": "cortex Aβ levels", "setting": "Aβ42; [5]", "value": "4.17±0.68", "unit": "pmol/mg protein"},
      {"measurement": "hippocampal Aβ levels", "setting": "Aβ42; [5]", "value": "6.35±0.54", "unit": "pmol/mg protein"},
      {"measurement": "cortical Aβ42", "setting": "Aβ42; [6]", "value": "about 104%"},
      {"measurement": "hippocampal Aβ42", "setting": "Aβ42; [6]", "value": "about 94 % that of vehicle-treated APP/PS1 mice"},
      {"measurement": "cortical Aβ42", "setting": "Aβ42; mice tested for fear conditioning over 21 days", "value": "about 103%"},
      {"measurement": "Aβ levels in APP/PS1 mice (words)", "setting": "Aβ42", "value": "no difference in Aβ42 levels; also recorded: did not change Aβ levels"},
      {"measurement": "Aβ levels in APP/PS1 mice (words)", "setting": "Aβ42; listed as Uch-L1 fusion protein", "value": "did not change Aβ levels"},
      {"measurement": "dimer formation", "setting": "[3]; 1 μM", "value": "no dimer formation was detected; also recorded: No dimers were detected"},
      {"measurement": "dimer formation", "setting": "[3]; 5 μM", "value": "Dimers were seen at 5 μM; also recorded: A weak band corresponding to dimers and other oligomeric species was detected"}
    ]}
  ]
}
